Here are results for 34 variants from the Human Domainome abundance scans (Beltran et al. 2025).

The labels stand for the following.
B1: Transcriptional regulator ERG, residues 117 to 197; numbered along this chain, P11308 (parent)
chain: NMTTNERRVIVPADPTLWSTDHVRQWLEWAVKEYGLPDVNILLFQNIDGKELCKMTKDDFQRLTPSYNADILLSHLHYLRE

± gives the uncertainty stated by the source.

In this data set the parent is B1. The data set is described as follows: abundance fitness (aPCA) (normalised: wild type 0, dead -1); higher = more abundant; growth selection in yeast, the domain comes from the species named. The conditions noted are these: Homo sapiens.
With NMTTNERRVIVPADPTLWSTDHVRQWLEWAVKEYGLPDVNILLFQNIMGKELCKMTKDDFQRLTPSYNADILLSHLHYLRE [D48M], the abundance fitness was -0.412 ± 0.079. In the case of NMTTNERRVIVPADPTLWSTDHVRQWLEWAVKEYGLPDVNILLFQNIQGKELCKMTKDDFQRLTPSYNADILLSHLHYLRE [D48Q], the abundance fitness is -0.227 ± 0.059. As to NMTTNERRVIVPADPTLWSTDHVRQWLEWAVKEYGLPDVNILLFQNIGGKELCKMTKDDFQRLTPSYNADILLSHLHYLRE [D48G], the abundance fitness is -0.114 ± 0.034.

For NMTTNERRVIVPADPTLWSTDHVRQWLEWAVKEYGLPDVNILLFQNITGKELCKMTKDDFQRLTPSYNADILLSHLHYLRE [D48T], the abundance fitness stood at 0.033 ± 0.052. In the case of NMTTNERRVIVPADPTLWSTDHVRQWLEWAVKEYGLPDVNILLFQNIKGKELCKMTKDDFQRLTPSYNADILLSHLHYLRE [D48K], the abundance fitness is -0.123 ± 0.062.

On to NMTTNERRVIVPADPTLWSTDHVRQWLEWAVKEYGLPDVNILLFQNIWGKELCKMTKDDFQRLTPSYNADILLSHLHYLRE [D48W], for which the abundance fitness was -0.969 ± 0.13.

Turning to NMTTNERRVIVPADPTLWSTDHVRQWLEWAVKEYGLPDVNILLFQNIVGKELCKMTKDDFQRLTPSYNADILLSHLHYLRE [D48V], the abundance fitness was -0.378 ± 0.051. With NMTTNERRVIVPADPTLWSTDHVRQWLEWAVKEYGLPDVNILLFQNIFGKELCKMTKDDFQRLTPSYNADILLSHLHYLRE [D48F], the abundance fitness is -0.399 ± 0.13. As for NMTTNERRVIVPADPTLWSTDHVRQWLEWAVKEYGLPDVNILLFQNICGKELCKMTKDDFQRLTPSYNADILLSHLHYLRE [D48C], the abundance fitness is -0.075 ± 0.064. As to NMTTNERRVIVPADPTLWSTDHVRQWLEWAVKEYGLPDVNILLFQNISGKELCKMTKDDFQRLTPSYNADILLSHLHYLRE [D48S], the abundance fitness is -0.052 ± 0.044. On to NMTTNERRVIVPADPTLWSTDHVRQWLEWAVKEYGLPDVNILLFQNINGKELCKMTKDDFQRLTPSYNADILLSHLHYLRE [D48N], for which the abundance fitness came out at 0.022 ± 0.087. In the case of NMTTNERRVIVPADPTLWSTDHVRQWLEWAVKEYGLPDVNILLFQNIEGKELCKMTKDDFQRLTPSYNADILLSHLHYLRE [D48E] it was -0.076 ± 0.045; in that of NMTTNERRVIVPADPTLWSTDHVRQWLEWAVKEYGLPDVNILLFQNILGKELCKMTKDDFQRLTPSYNADILLSHLHYLRE [D48L], -0.521 ± 0.06.

Turning to NMTTNERRVIVPADPTLWSTDHVRQWLEWAVKEYGLPDVNILLFQNIPGKELCKMTKDDFQRLTPSYNADILLSHLHYLRE [D48P], the abundance fitness is -0.295 ± 0.081.

On to NMTTNERRVIVPADPTLWSTDHVRQWLEWAVKEYGLPDVNILLFQNIRGKELCKMTKDDFQRLTPSYNADILLSHLHYLRE [D48R], for which the abundance fitness was -0.183 ± 0.036.

In the case of NMTTNERRVIVPADPTLWSTDHVRQWLEWAVKEYGLPDVNILLFQNIDGGELCKMTKDDFQRLTPSYNADILLSHLHYLRE [K50G], the abundance fitness is -0.089 ± 0.031. Turning to NMTTNERRVIVPADPTLWSTDHVRQWLEWAVKEYGLPDVNILLFQNIDGDELCKMTKDDFQRLTPSYNADILLSHLHYLRE [K50D], the abundance fitness was -0.004 ± 0.065. Regarding NMTTNERRVIVPADPTLWSTDHVRQWLEWAVKEYGLPDVNILLFQNIDGHELCKMTKDDFQRLTPSYNADILLSHLHYLRE [K50H], the abundance fitness was -0.098 ± 0.084. For the variant NMTTNERRVIVPADPTLWSTDHVRQWLEWAVKEYGLPDVNILLFQNIDGAELCKMTKDDFQRLTPSYNADILLSHLHYLRE [K50A], the abundance fitness came out at 0.044 ± 0.037. With NMTTNERRVIVPADPTLWSTDHVRQWLEWAVKEYGLPDVNILLFQNIDGEELCKMTKDDFQRLTPSYNADILLSHLHYLRE [K50E], the abundance fitness was found to be 0.035 ± 0.048. For NMTTNERRVIVPADPTLWSTDHVRQWLEWAVKEYGLPDVNILLFQNIDGCELCKMTKDDFQRLTPSYNADILLSHLHYLRE [K50C], the abundance fitness was 0.015 ± 0.059. Regarding NMTTNERRVIVPADPTLWSTDHVRQWLEWAVKEYGLPDVNILLFQVIDGKELCKMTKDDFQRLTPSYNADILLSHLHYLRE [N46V], the abundance fitness was -0.617 ± 0.07. In the case of NMTTNERRVIVPADPTLWSTDHVRQWLEWAVKEYGLPDVNILLFQSIDGKELCKMTKDDFQRLTPSYNADILLSHLHYLRE [N46S] it was 0.012 ± 0.044; in that of NMTTNERRVIVPADPTLWSTDHVRQWLEWAVKEYGLPDVNILLFQYIDGKELCKMTKDDFQRLTPSYNADILLSHLHYLRE [N46Y], -0.082 ± 0.073. NMTTNERRVIVPADPTLWSTDHVRQWLEWAVKEYGLPDVNILLFQMIDGKELCKMTKDDFQRLTPSYNADILLSHLHYLRE [N46M]: the abundance fitness was -0.255 ± 0.066. Under NMTTNERRVIVPADPTLWSTDHVRQWLEWAVKEYGLPDVNILLFQRIDGKELCKMTKDDFQRLTPSYNADILLSHLHYLRE [N46R] stands -0.106 ± 0.036; under NMTTNERRVIVPADPTLWSTDHVRQWLEWAVKEYGLPDVNILLFQTIDGKELCKMTKDDFQRLTPSYNADILLSHLHYLRE [N46T], -0.035 ± 0.069; under NMTTNERRVIVPADPTLWSTDHVRQWLEWAVKEYGLPDVNILLFQQIDGKELCKMTKDDFQRLTPSYNADILLSHLHYLRE [N46Q], -0.144 ± 0.078. NMTTNERRVIVPADPTLWSTDHVRQWLEWAVKEYGLPDVNILLFQHIDGKELCKMTKDDFQRLTPSYNADILLSHLHYLRE [N46H]: the abundance fitness is -0.063 ± 0.089. In the case of NMTTNERRVIVPADPTLWSTDHVRQWLEWAVKEYGLPDVNILLFQKIDGKELCKMTKDDFQRLTPSYNADILLSHLHYLRE [N46K], the abundance fitness is -0.104 ± 0.059. Regarding NMTTNERRVIVPADPTLWSTDHVRQWLEWAVKEYGLPDVNILLFQLIDGKELCKMTKDDFQRLTPSYNADILLSHLHYLRE [N46L], the abundance fitness was -0.251 ± 0.056. With NMTTNERRVIVPADPTLWSTDHVRQWLEWAVKEYGLPDVNILLFQIIDGKELCKMTKDDFQRLTPSYNADILLSHLHYLRE [N46I], the abundance fitness was -0.379 ± 0.13. Under NMTTNERRVIVPADPTLWSTDHVRQWLEWAVKEYGLPDVNILLFQWIDGKELCKMTKDDFQRLTPSYNADILLSHLHYLRE [N46W] stands -0.201 ± 0.057; under NMTTNERRVIVPADPTLWSTDHVRQWLEWAVKEYGLPDVNILLFQPIDGKELCKMTKDDFQRLTPSYNADILLSHLHYLRE [N46P], -0.244 ± 0.084.
